# Test results taken from the supplement of paper PMC9112550, “Optimization of the antimicrobial peptide Bac7 by deep mutational scanning” (BMC Biology, 2022).
# Test system: Escherichia coli TOP10
# Experiment: shrunken log2 fold change of peptide-encoding DNA abundance (4.5 h post-induction vs induction); higher = less antimicrobial activity (less host growth inhibition)
# Settings: time post-induction: 4.5 h; library: site-saturation at positions 5, 18, 19, 20
# 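Note: peptides expressed intracellularly from a pBAD plasmid library in pooled LB shake-flask culture, induced with 0.3% L-arabinose, DNA abundance read by NGS, three biological replicates, DESeq2 with apeglm shrinkage.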
row,Sequence,shrunken log2 fold change
1,RRIRQRPPRLPRPRPRPEVDPRP,0.0316
2,RRIRERPPRLPRPRPRPGDTPRP,-0.943
3,RRIRNRPPRLPRPRPRPWQPPRP,0.104
4,RRIRVRPPRLPRPRPRPDMSPRP,-0.0318
5,RRIRTRPPRLPRPRPRPYFKPRP,-0.577
6,RRIRIRPPRLPRPRPRPRQAPRP,0.0194
7,RRIRMRPPRLPRPRPRPKALPRP,0.025
8,RRIRFRPPRLPRPRPRPTGTPRP,0.0314
9,RRIRFRPPRLPRPRPRPLSWPRP,0.245
10,RRIRTRPPRLPRPRPRPTIAPRP,-0.372
11,RRIRFRPPRLPRPRPRPHLDPRP,-0.275
12,RRIRDRPPRLPRPRPRPPRYPRP,0.244
13,RRIRYRPPRLPRPRPRPEPHPRP,-0.0423
14,RRIRTRPPRLPRPRPRPGWKPRP,0.262
15,RRIRTRPPRLPRPRPRPMCWPRP,-0.0846
16,RRIRKRPPRLPRPRPRPGEWPRP,-0.0202
17,RRIRSRPPRLPRPRPRPVCNPRP,0.413
18,RRIRKRPPRLPRPRPRPWQSPRP,0.0203
19,RRIRARPPRLPRPRPRPTKRPRP,0.247
20,RRIRHRPPRLPRPRPRPNYVPRP,-0.0206
21,RRIRLRPPRLPRPRPRPSPHPRP,-0.242
22,RRIRYRPPRLPRPRPRPIWGPRP,-0.0267
23,RRIRVRPPRLPRPRPRPYDTPRP,1.6
24,RRIRVRPPRLPRPRPRPYTAPRP,-0.649
25,RRIRNRPPRLPRPRPRPTVYPRP,0.0487

row,Sequence,shrunken log2 fold change
1,RRIRCRPPRLPRPRPRPIKLPRP,-0.63
2,RRIRWRPPRLPRPRPRPDYRPRP,-0.0424
3,RRIRERPPRLPRPRPRPDAQPRP,0.154
4,RRIRLRPPRLPRPRPRPAKQPRP,0.0963
5,RRIRMRPPRLPRPRPRPKNPPRP,0.145
6,RRIRNRPPRLPRPRPRPQFSPRP,-0.306
7,RRIRHRPPRLPRPRPRPQLHPRP,-0.169
8,RRIRGRPPRLPRPRPRPPNCPRP,0.266
9,RRIRHRPPRLPRPRPRPPMDPRP,-0.309
10,RRIRMRPPRLPRPRPRPIFKPRP,0.161
11,RRIRHRPPRLPRPRPRPHFAPRP,-0.101
12,RRIRKRPPRLPRPRPRPTNHPRP,-0.0148
13,RRIRQRPPRLPRPRPRPVLPPRP,0.0127
14,RRIRYRPPRLPRPRPRPDLMPRP,-0.107
15,RRIRDRPPRLPRPRPRPVTMPRP,-0.228
16,RRIRKRPPRLPRPRPRPFNKPRP,-0.0789
17,RRIRMRPPRLPRPRPRPDEQPRP,0.0522
18,RRIRTRPPRLPRPRPRPFESPRP,0.0313
19,RRIRARPPRLPRPRPRPRWPPRP,0.666
20,RRIRRRPPRLPRPRPRPVDLPRP,0.332
21,RRIRVRPPRLPRPRPRPHTWPRP,-0.351
22,RRIRIRPPRLPRPRPRPEFEPRP,-0.0399
23,RRIRNRPPRLPRPRPRPGECPRP,0.266
24,RRIRQRPPRLPRPRPRPCKPPRP,-0.207
25,RRIRKRPPRLPRPRPRPYCDPRP,0.00748

row,Sequence,shrunken log2 fold change
1,RRIRARPPRLPRPRPRPFVHPRP,-0.207
2,RRIRWRPPRLPRPRPRPKLYPRP,0.113
3,RRIRIRPPRLPRPRPRPTCWPRP,0.151
4,RRIRPRPPRLPRPRPRPGIGPRP,0.208
5,RRIRWRPPRLPRPRPRPSNAPRP,-0.0613
6,RRIRRRPPRLPRPRPRPSEDPRP,0.0524
7,RRIRVRPPRLPRPRPRPNLDPRP,-0.0165
8,RRIRQRPPRLPRPRPRPCEPPRP,-0.0332
9,RRIRLRPPRLPRPRPRPVSVPRP,-0.118
10,RRIRQRPPRLPRPRPRPTNIPRP,-0.122
11,RRIRSRPPRLPRPRPRPGSDPRP,0.0314
12,RRIRSRPPRLPRPRPRPGYDPRP,-0.125
13,RRIRERPPRLPRPRPRPQVYPRP,-0.023
14,RRIRVRPPRLPRPRPRPWQGPRP,0.0284
15,RRIRTRPPRLPRPRPRPQVQPRP,-0.0311
16,RRIRGRPPRLPRPRPRPLPPPRP,1.19
17,RRIRNRPPRLPRPRPRPFIGPRP,-0.0677
18,RRIRSRPPRLPRPRPRPNWFPRP,-0.0702
19,RRIRQRPPRLPRPRPRPHPSPRP,-0.462
20,RRIRLRPPRLPRPRPRPWRLPRP,0.0799
21,RRIRHRPPRLPRPRPRPTRNPRP,-0.0346
22,RRIRKRPPRLPRPRPRPQDWPRP,0.413
23,RRIRRRPPRLPRPRPRPWEEPRP,0.158
24,RRIRTRPPRLPRPRPRPFDTPRP,-0.346
25,RRIRVRPPRLPRPRPRPMSLPRP,0.0447

row,Sequence,shrunken log2 fold change
1,RRIRSRPPRLPRPRPRPTNYPRP,-0.44
2,RRIRLRPPRLPRPRPRPLVWPRP,0.193
3,RRIRLRPPRLPRPRPRPFYQPRP,-0.161
4,RRIRDRPPRLPRPRPRPVGQPRP,0.435
5,RRIRPRPPRLPRPRPRPFAEPRP,0.0204
6,RRIRMRPPRLPRPRPRPGVGPRP,0.841
7,RRIRQRPPRLPRPRPRPNQNPRP,-0.24
8,RRIRWRPPRLPRPRPRPYSAPRP,-0.147
9,RRIRWRPPRLPRPRPRPPVAPRP,0.983
10,RRIRPRPPRLPRPRPRPAVAPRP,0.416
11,RRIRYRPPRLPRPRPRPRLIPRP,-0.466
12,RRIRMRPPRLPRPRPRPFFRPRP,0.406
13,RRIRTRPPRLPRPRPRPYATPRP,-0.178
14,RRIRPRPPRLPRPRPRPCESPRP,0.183
15,RRIRVRPPRLPRPRPRPKACPRP,0.153
16,RRIRKRPPRLPRPRPRPWPWPRP,0.847
17,RRIRMRPPRLPRPRPRPDPQPRP,0.593
18,RRIRPRPPRLPRPRPRPWFRPRP,-0.0017
19,RRIRHRPPRLPRPRPRPKRGPRP,0.0662
20,RRIRTRPPRLPRPRPRPDQIPRP,-0.0138
21,RRIRGRPPRLPRPRPRPTRAPRP,1.04
22,RRIRVRPPRLPRPRPRPVDTPRP,-0.18
23,RRIRIRPPRLPRPRPRPVMHPRP,0.152
24,RRIRGRPPRLPRPRPRPENLPRP,-0.0405
25,RRIRKRPPRLPRPRPRPFSIPRP,-0.0639

row,Sequence,shrunken log2 fold change
1,RRIRRRPPRLPRPRPRPEIQPRP,0.0536
2,RRIRSRPPRLPRPRPRPQPCPRP,2.29
3,RRIRTRPPRLPRPRPRPYHTPRP,-0.723
4,RRIRGRPPRLPRPRPRPWTYPRP,0.0864
5,RRIRHRPPRLPRPRPRPHLPPRP,-0.0497
6,RRIRSRPPRLPRPRPRPPKTPRP,-0.0288
7,RRIRTRPPRLPRPRPRPGFGPRP,0.263
8,RRIRHRPPRLPRPRPRPLCPPRP,-0.138
9,RRIRMRPPRLPRPRPRPDNYPRP,-0.0552
10,RRIRYRPPRLPRPRPRPWKKPRP,0.00843
11,RRIRMRPPRLPRPRPRPDDIPRP,-0.00151
12,RRIRERPPRLPRPRPRPACIPRP,-0.0281
13,RRIRIRPPRLPRPRPRPKVVPRP,-0.00466
14,RRIRDRPPRLPRPRPRPELFPRP,0.184
15,RRIRDRPPRLPRPRPRPALEPRP,0.659
16,RRIRLRPPRLPRPRPRPHCEPRP,-0.00711
17,RRIRQRPPRLPRPRPRPCYEPRP,-0.0157
18,RRIRGRPPRLPRPRPRPPADPRP,1.59
19,RRIRLRPPRLPRPRPRPHSSPRP,0.0594
20,RRIRLRPPRLPRPRPRPFHPPRP,-0.0146
21,RRIRVRPPRLPRPRPRPNQGPRP,-0.129
22,RRIRIRPPRLPRPRPRPSCIPRP,-0.0523
23,RRIRIRPPRLPRPRPRPPWQPRP,1.02
24,RRIRIRPPRLPRPRPRPRISPRP,-0.127
25,RRIRMRPPRLPRPRPRPWMIPRP,-0.136

row,Sequence,shrunken log2 fold change
1,RRIRDRPPRLPRPRPRPGENPRP,-0.00211
2,RRIRHRPPRLPRPRPRPIFIPRP,-0.372
3,RRIRMRPPRLPRPRPRPLTWPRP,0.308
4,RRIRYRPPRLPRPRPRPGTPPRP,1.16
5,RRIRFRPPRLPRPRPRPIVWPRP,0.0539
6,RRIRKRPPRLPRPRPRPHFMPRP,-0.171
7,RRIRERPPRLPRPRPRPGRLPRP,-0.263
8,RRIRYRPPRLPRPRPRPVSQPRP,-0.303
9,RRIRMRPPRLPRPRPRPMALPRP,0.517
10,RRIRIRPPRLPRPRPRPPHTPRP,-0.055
11,RRIRDRPPRLPRPRPRPPWPPRP,0.654
12,RRIRCRPPRLPRPRPRPRAKPRP,0.26
13,RRIRWRPPRLPRPRPRPLDNPRP,-0.23
14,RRIRARPPRLPRPRPRPGRRPRP,0.339
15,RRIRQRPPRLPRPRPRPSGIPRP,0.144
16,RRIRTRPPRLPRPRPRPSAWPRP,0.0388
17,RRIRHRPPRLPRPRPRPWFMPRP,-0.474
18,RRIRNRPPRLPRPRPRPWLCPRP,0.00252
19,RRIRCRPPRLPRPRPRPAYSPRP,-0.97
20,RRIRRRPPRLPRPRPRPPPGPRP,1.05
21,RRIRLRPPRLPRPRPRPKHQPRP,0.125
22,RRIRHRPPRLPRPRPRPWVEPRP,-0.0959
23,RRIRARPPRLPRPRPRPIAPPRP,0.53
24,RRIRPRPPRLPRPRPRPCDEPRP,0.0442
25,RRIRWRPPRLPRPRPRPTYTPRP,-0.136
